Results taken from article doi:10.1101/2020.05.26.116228, “Cataract-associated New Mutants S175G/H181Q of βB2-Crystallin and P24S/S31G of γD-Crystallin are Involved in Protein aggregation by Structural Changes” (bioRxiv, 2020).

Target: the molecule itself
Assay: SEC; Superdex 200 HR 10/30 in PBS (140 mM NaCl, 2.7 mM KCl, 10 mM Na2HPO4, pH 7.4), 0.5 mL/min; protein 2 mg/mL or 450 μg/100 μL (methods); markers albumin 66.4 kDa and α-lactalbumin 14.2 kDa; dimer in rapid equilibrium with monomer

B1: S175G/H181Q βB2-crystallin (natural protein, human)
chain: ASDHQTQAGKPQSLNPKIIIFEQENFQGHSHELNGPCPNLKETGVEKAGSVLVQAGPWVGYEQANCKGEQFVFEKGEYPRWDSWTSSRRTDSLSSLRPIKVDSQEHKIILYENPNFTGKKMEIIDDDVPSFHAHGYQEKVSSVRVQSGTWVGYQYPGYRGLQYLLEKGDYKDSGDFGAPQPQVQSVRRIRDMQWHQRGAFHPSN
notes: human βB2-crystallin with the double mutation found in nuclear cataract lenses, made by site-directed mutagenesis of pGEX-4t-1 CRBB2; also called S175G/H181Q mutant; CRBB2 S175G/H181Q; source: E. coli BL21 (DE3), purified (glutathione-agarose, cleaved from GST with thrombin)
binding result: binds
